Data on 1 protein can be found in paper PMC3553970.

Substrate in the series: N[C@@H](Cc1ccc(O)cc1)C(=O)O
The series is described as follows: purified protein. The conditions noted are these: amino acid activation, ATP, no tRNA, 37°C, near-cognate amino acid.

B1: M. mobile PheRS (MmPheRS) (Mycoplasma mobile 163K) (protein)
chain: MKKNLTNLRIETLEDLKIAKSNFLNNDLELKQLMNDLKLASKEQKASIGQKINFYKQEIEQFFLTKKEEIEKKEVLKKIQDEFIDVFEEVNFSSSLHPLTLIENRFRTWFLNNGYYETEGSEITTDKINFELLNIPKDHPSRDMQDSLYLEKEQNGDQLLLRTHNTGFSIIELIKNKNKAFSAFSIGKVYRNDEDDNTHSHQFSQVDVIVAGKYNFPNLMWLLKSLLSYVFEEEVKIRLRPSYFPFTEPSCEVDVFYKNKWIEVLGSGIIHENVMKAAGYTNDMNALAWGIGIERIAMIKYGIDNIREFYKNDIRFLKQFNLEIEKLEV
As a reminder, the Km is the concentration of substrate that gives half-maximal velocity. As usually defined, the kcat is the maximal rate divided by the concentration of active sites. In general, kcat/Km refers to the second-order rate constant that governs catalysis at low substrate concentration. As to B1, the Km came to 3.9 ± 0.54 mM, the kcat worked out at 8 s⁻¹ and the kcat/Km was 2100 M⁻¹ s⁻¹.
